From IntAct's records for PubMed 23956175 come the findings set out here.

The labels stand for the following.
B1: Protein disulfide isomerase Creld2 (Mus musculus), Q9CYA0 (parent)
chain: MHLLLAAAFGLLLLLPPPGAVASRKPTMCQRCRTLVDKFNQGMANTARKNFGGGNTAWEEKTLSKYEFSEIRLLEIMEGLCDSSDFECNQLLEQQEEQLEAWWQTLKKEHPNLFEWFCVHTLKACCLPGTYGPDCQECQGGSERPCSGNGYCSGDGSRQGDGSCQCHTGYKGPLCIDCTDGFFSLQRNETHSICSACDESCKTCSGPSNKDCIQCEVGWARVEDACVDVDECAAETSPCSDGQYCENVNGSYTCEDCDSTCVGCTGKGPANCKECIAGYTKESGQCTDIDECSLEEKACKRKNENCYNVPGSFVCVCPEGFEETEDACVQTAEGKVTEENPTQPPSREDL
partner: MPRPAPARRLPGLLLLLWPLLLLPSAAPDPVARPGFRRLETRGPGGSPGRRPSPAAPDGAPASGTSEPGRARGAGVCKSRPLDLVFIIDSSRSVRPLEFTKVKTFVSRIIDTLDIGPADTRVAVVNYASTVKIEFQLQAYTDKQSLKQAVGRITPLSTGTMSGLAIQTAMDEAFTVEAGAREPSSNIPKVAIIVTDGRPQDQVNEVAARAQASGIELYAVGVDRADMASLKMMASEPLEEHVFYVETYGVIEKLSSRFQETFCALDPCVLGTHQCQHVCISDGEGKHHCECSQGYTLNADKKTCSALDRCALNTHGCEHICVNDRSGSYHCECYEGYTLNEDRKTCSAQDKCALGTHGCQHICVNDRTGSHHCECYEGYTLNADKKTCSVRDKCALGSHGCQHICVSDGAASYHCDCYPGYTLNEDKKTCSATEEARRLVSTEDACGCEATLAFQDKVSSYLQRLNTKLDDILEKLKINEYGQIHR

The variants in the test derive from B1. Particulars: with matn3_human MATN3, O15232.
Consider C32A, for which the “effect of a mutation on the interaction” value was “causing an interaction”.
